Assay results from patent US20120264815.

Biological target: von Willebrand factor (VWF) (Homo sapiens) (UniProt P04275)
Assay: filter
Conditions: 2'-F pyrimidines; pool after 4 rounds convergent SELEX

“GGGAGGACGAUGCGGNNNNNNNNNNNNNNNNNNNNNNNNNNNNNNNNNNNNNNNNCAGACGACUCGCUGAGGAUCC [VWF convergent SELEX round 4 pool (R9)]” was tested, and the Kd was 4.5 nM.
